Experimental data published in patent US20050272649A1, “Conjoint administration of morphogens and ACE inhibitors in treatment of chronic renal failure” (priority 2002, published 2005).
Values joined by “and” are separate entries in the source; they are usually repeats but may differ in a detail not shown here. Identical values can stand only once. “Also recorded” adds a separate entry of the source. Like-named read-outs stand apart in the source and are kept apart here.

Key:
[1] = test system: unilateral ureteral ligation in Sprague-Dawley rats; conditions: cited from earlier work; for interstitial inflammation, fibrogenesis / renal (tubulointerstitial) fibrosis: OP-1 100 or 300 μg/kg, first 5 days after obstruction, compared with enalapril
[2] = test system: streptozotocin diabetic Sprague-Dawley rats; assay type: in vivo; conditions: for Protein Ex (mg/day), urine protein excretion / kidney weight: at 32 weeks; for Mortality: deaths/animals; for GFR (ml/min/100 g bw): inulin clearance at 32 weeks; for prevalence of sclerotic glomeruli (glomerulosclerosis): DM vehicle 10.7±4.0%
Protocol: A long-term streptozotocin model of diabetic nephropathy was used to test and compare the therapeutic actions of BMP-7 with those of Enalapril. The study design was a treatment protocol beginning at 16 weeks when glomerular hypertrophy and proteinuria were established. The effects of therapy with BMP-7 (10, 30, or 100 μg/kg iv, biw) were compared to a maximal dose of Enalapril (20 mg/kg) and to a vehicle control. […] The GFR of 32 week diabetic Enalapril treated rats was 0.58±0.06 (not significant compared to vehicle treated and sham injected rats 0.55±0.02).
Animals: Female Sprague-Dawley rats 10 weeks of age weighing 190-220 g were used. Animals were allowed free access to standard rat chow and to tap water. Diabetes mellitus was induced by a single tail-vein injection of Streptozotocin (STZ 62 mg/kg of body weight, Sigma chemical company, St. Louis, Mo.) dissolved in normal saline at day 0. The diabetic state was confirmed 72 hours later by the determination of blood glucose concentration>300 mg/dl. From day 3, all the diabetic rats received daily subcutaneous injections of 1.0-7.0 u human recombinant long-acting insulin injection (Eli Lilly & Co., Indianapolis, Ind.) as required to maintain the blood glucose concentration between 300-500 mg/dl. Tail blood glucose levels were measured twice a week with an Accu—Chek™ Advantage meter (Roche Diagnostic Corporation, Indianapolis, Ind.). Body weights were taken once a week. Food and water intake were monitored daily.
Renal hypertrophy was well developed at 16 weeks prior to treatment with vehicle, BMP-7, or enalapril. […], animals were divided into 8 groups. Group 1 were 16 weeks of DM. Group 2 were 16 weeks normal controls. Group 3 DM animals were treated with tail-vein injection of vehicle twice a week for 16 weeks. Group 4, Group 5, and Group 6 were DM animals treated with tail-vein injections of BMP-7 100, 30, and 10 μg/kg body weight respectively twice a week for 16 weeks. Group 7 were treated with Enalapril 20 mg/kg through the drinking water for 16 weeks. […] Group 1 and Group 2 animals were sacrificed at 16 weeks. The others were sacrificed at 32 weeks. All treatments began at 16 weeks and continued through 32 weeks. Glomerular filtration rate (GFR), urine albumin excretion, kidney weight, glomerular area, mesangial matrix area, interstitial volume, monocyte and macrophage infiltration, thickness of glomerular basement membrane (GBM) and glomerulosclerosis were measured.
Renal Function: In all animals, glomerular filtration rate (GFR) was measured as the clearance of inulin. Rats were anesthetized with a Ketamine/Xylozine cocktail. A catheter was inserted into the femoral vein under a dissecting microscope for infusion. Another catheter was placed into the femoral artery for collecting blood samples. Urine was collected by bladder cannulation.
After the completion of surgery, a bolus of 2 ml/kg of 3% inulin (Cypros Pharmaceutical Corp, W. Carlsbad, Calif.) and 0.2% p-aminohippurate (PAH) in normal saline was infused as a priming load, followed by a sustaining infusion of the same solution at the rate of 8 ml/h·kg. Urine collection was initiated for three 20-minute collection periods after an hour of equilibration. An arterial blood sample was obtained during each clearance period. Plasma and urine were analyzed for inulin.
Urine volume was measured and urinary protein concentration was determined with a Bio-Rad protein assay.
Preparation of Kidneys: After the clearance studies, the rats were euthanized. Both kidneys were rapidly removed and placed in ice-cold phosphate buffered saline (PBS). Kidneys were weighed and then sliced on a cold glass plate. Two 2 mm coronal sections were immersed in Histochoice and in 10% buffered formalin. Kidney sections were embedded in paraffin and cut at 3 μm and stained with hematoxylin and eosin, Gomori's Trichrome and periodic acid Schiff (PAS).
Renal Morphology: The morphometric analysis was done in a blind manner. […]

[3] = test system: streptozotocin-induced diabetic Sprague-Dawley rats; test: Streptozotocin-induced diabetic nephropathy model (Example 3); assay type: in vivo, rat
Protocol: Streptozotocin kills pancreatic β cells and induces type I diabetes (for review, see Cheta et al. (1998) J Pediatr Endocrinol Metab 11:11-9). It is widely used to induce experimental diabetic nephropathy in animals (see FIG. 22). Adult female Sprague-Dawley rats (weighing 200-250 g) were intraperitoneally injected with streptozotocin (60 mg/kg body weight) to induce hyperglycemia. Hyperglycemic rats then received daily injections of insulin to maintain blood glucose between 200-400 mg/dL. At week 16 when renal function declined, animals were treated weekly with OP-1 (10, 30 or 100 μg/kg body weight), enalapril (50 or 100 mg/L in drinking water) or a combination of OP-1 and enalapril. Control animals without streptozotocin treatment were handled in all other ways like treated animals. Animals were sacrificed at week 32 post-streptozotocin treatment.

[4] = BMP-7 10 μg/kg iv twice a week, weeks 16-32
[5] = BMP-7 10 μg/kg iv twice a week, weeks 16-32, listed as BMP
[6] = BMP-7 30 μg/kg iv twice a week, weeks 16-32
[7] = BMP-7 30 μg/kg iv twice a week, weeks 16-32, listed as BMP
[8] = BMP-7 100 μg/kg iv twice a week (high dose), weeks 16-32
[9] = BMP-7 100 μg/kg iv twice a week (high dose), weeks 16-32, listed as BMP
[10] = BMP-7 100 μg/kg iv twice a week, weeks 16-32

B1: OP-1: osteogenic protein-1 (OP-1, also known as BMP-7), morphogen of the OP/BMP family; OP-1 used interchangeably with sBMP-7 (protein)
chain: STGSKQRSQNRSKTPKNQEALRMANVAENSSSDQRQACKKHELYVSFRDLGWQDWIIAPEGYAAYYCEGECAFPLNSYMNATNHAIVQTLVHFINPETVPKPCCAPTQLNAISVLYFDDSSNVILKKYRNMVVRACGCH
interstitial inflammation, fibrogenesis / renal (tubulointerstitial) fibrosis [1]: prevented interstitial inflammation and fibrogenesis; also recorded: more effective in preventing tubulointerstitial fibrosis and in preserving renal function; also recorded: reduces renal fibrosis | interstitial inflammation, fibrogenesis / renal (tubulointerstitial) fibrosis ([1]; listed as OP-1/BMP-7): Inhibits renal fibrosis | epithelial cell apoptosis produced by UUO ([1]; UUO rats): blocked the stimulation of epithelial cell apoptosis | tubular atrophy ([1]; UUO rats): prevention of tubular atrophy; also recorded: reduces tubular atrophy | tubular epithelial disruption ([1]; UUO rats): inhibited tubular epithelial disruption | renal blood flow (RBF) ([1]; during UUO): preserved renal blood flow | renal BMP-7 expression (in situ hybridization) ([2]; 32 weeks): restored BMP-7 expression at high levels in the collecting duct; also recorded: restored BMP-7 expression in its normal pattern at high levels; also recorded: restored the normal distribution of BMP-7 expression | renal Wnt4 expression (in situ hybridization) ([2]; 32 weeks): without affecting Wnt4 expression; also recorded: do not affect Wnt4 expression; also recorded: had no effect on Wnt4 expression | Cause-Mortality unknown ([2]; BMP-7 10 μg/kg iv twice a week): 2/9 | Protein Ex (mg/day), urine protein excretion [2, 4]: 59.46 ± 21.84 mg/day | kidney weight [2, 4]: 1.19 ± 0.03 g | Protein Ex (mg/day), urine protein excretion [2, 5]: 59.46 ± 21.84 mg/day | kidney weight [2, 5]: 1.19 ± 0.03 g | Mortality [2, 4]: 2/9 | GFR (ml/min/100 g bw) [2, 4]: 0.59±0.07 ml/min/100 g bw | GFR (ml/min/100 g bw) [2, 5]: 0.59 ± 0.07 ml/min/100 g bw | prevalence of sclerotic glomeruli (glomerulosclerosis) ([2]; BMP-7 10 μg/kg, weeks 16-32): 4.1±1.4% | Cause-Mortality anesthesia ([2]; BMP-7 30 μg/kg iv twice a week): 1/9 | Protein Ex (mg/day), urine protein excretion [2, 6]: 33.02 ± 9.11 mg/day | kidney weight [2, 6]: 1.19 ± 0.03 g | Protein Ex (mg/day), urine protein excretion [2, 7]: 33.02 ± 9.11 mg/day | kidney weight [2, 7]: 1.19 ± 0.03 g | Mortality [2, 6]: 1/9 | GFR (ml/min/100 g bw) [2, 6]: 0.61±0.09 ml/min/100 g bw and 0.62±0.09 ml/min/100 g bw | GFR (ml/min/100 g bw) [2, 7]: 0.62 ± 0.09 ml/min/100 g bw | prevalence of sclerotic glomeruli (glomerulosclerosis) ([2]; BMP-7 30 μg/kg, weeks 16-32): 3.5±0.8% | Cause-Mortality hypoglycemia ([2]; BMP-7 100 μg/kg iv twice a week): 1/10 | kidney weight [2, 8]: 1.10 ± 0.03 g | kidney weight [2, 9]: 1.10 ± 0.03 g | GFR (ml/min/100 g bw) [2, 8]: 0.7±0.08 ml/min/100 g bw | GFR (ml/min/100 g bw) [2, 9]: 0.70 ± 0.08 ml/min/100 g bw | Protein Ex (mg/day), urine protein excretion [2, 10]: 14.27 ± 3.50 mg/day | Protein Ex (mg/day), urine protein excretion ([2]; BMP-7 100 μg/kg iv twice a week, weeks 16-32, listed as BMP): 14.27 ± 3.50 mg/day | Mortality [2, 10]: 1/10 | prevalence of sclerotic glomeruli (glomerulosclerosis) ([2]; BMP-7 100 μg/kg, weeks 16-32): 2.1±0.3% | cortical interstitial area / volume ([2]; BMP-7 high dose (100 μg/kg), weeks 16-32, DM vehicle 13.1±0.7%): 10.7±0.3% | monocyte/macrophage tubulointerstitial infiltration ([2]; ED-1 positive cells, 32 weeks): decreased the tubulointerstitial infiltration | mesangial matrix accumulation (in words) ([2]; PAS / Trichrome histology at 32 weeks): dose dependent reduction in the accumulation of mesangial matrix; also recorded: more effective than Enalapril; also recorded: greater mesangial matrix accumulation than the two higher doses | glomerular area / glomerular hypertrophy (in words) ([2]; treatment weeks 16-32): significantly decreased; also recorded: partially reversed glomerular hypertrophy; also recorded: equally effective | glomerulosclerosis (in words) ([2]; treatment weeks 16-32): prevented by BMP-7 therapy more effectively than by Enalapril; also recorded: prevented the development of glomerulosclerosis; also recorded: markedly reduced; also recorded: prevented the development of glomerular sclerosis; also recorded: more effective than Enalapril; also recorded: decreased glomerular sclerosis; also recorded: significantly better than that of Enalapril | interstitial volume (in words) ([2]; treatment weeks 16-32): significantly decreased; also recorded: reversed the increase in the expanded interstitial volume; also recorded: equally effective | systolic blood pressure (tail artery cuff) ([2]; treatment weeks 16-32): did not effect blood pressure until the final four weeks of therapy; also recorded: had no effect on blood pressure until after 28 weeks; also recorded: blood pressures were normalized; also recorded: did not affect blood pressure until late in the course of the study; also recorded: did not affect blood pressure until the last four weeks of therapy | urine protein excretion / proteinuria / albuminuria (in words) ([2]; treatment weeks 16-32): reversed to normal; also recorded: more effective in reversing proteinuria; also recorded: dose dependently eliminated proteinuria; also recorded: more effective than Enalapril | GFR (in words) ([2]; treatment weeks 16-32, versus vehicle-treated diabetic and normal rats): normal or greater; also recorded: restored glomerular filtration rate to normal; also recorded: more effective than Enalapril; also recorded: restored GFR to normal or slightly above normal | kidney weight / renal hypertrophy (in words) ([2]; treatment weeks 16-32, versus vehicle-treated diabetic rats): equal in partially reversing kidney hypertrophy; also recorded: partially reversed diabetic renal hypertrophy; also recorded: partially restored kidney weights towards normal; also recorded: equally effective | mean GFR ([3]; OP-1 100 μg/kg weekly, weeks 16-32, 32-week diabetic animals about 0.38): about 0.7 ml/min/100 g body weight | proteinuria level ([3]; OP-1 30 and 100 μg/kg, enalapril 50 and 100 mg/L, or combination, diabetic about 140 mg/day): almost normal level; also recorded: reduces proteinuria; also recorded: significantly reduced the proteinuria level | glomerular filtration rate (in words) ([3]; weeks 16-32 treatment): significantly increased the glomerular filtration rate; also recorded: increases the glomerular filtration rate
